Measured values: paper PMC10397247
Values belong to the binder of their own block, whether it stands above or below them.

Legend:
4H717-AA = target: T1, 4H717-AA; test: two-hybrid library CCmax; conditions: mean of both orientations;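 note: natural log of median RNA to DNA barcode read ratio; higher means stronger binding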
T1 chain: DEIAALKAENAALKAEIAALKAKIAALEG

4H568-AA = target: T2, 4H568-AA; test: two-hybrid library CCmax; conditions: mean of both orientations;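 note: natural log of median RNA to DNA barcode read ratio; higher means stronger binding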
T2 chain: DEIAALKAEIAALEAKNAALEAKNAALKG

4H967-AA = target: T3, 4H967-AA; test: two-hybrid library CCmax;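 note: natural log of median RNA to DNA barcode read ratio; higher means stronger binding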
T3 chain: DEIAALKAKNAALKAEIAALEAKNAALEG

4H883-AA = target: T4, 4H883-AA; test: two-hybrid library CCmax; conditions: mean of both orientations;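 note: natural log of median RNA to DNA barcode read ratio; higher means stronger binding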
T4 chain: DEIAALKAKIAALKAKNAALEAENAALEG

4H687-AA = target: T5, 4H687-AA; test: two-hybrid library CCmax; conditions: mean of both orientations;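 note: natural log of median RNA to DNA barcode read ratio; higher means stronger binding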
T5 chain: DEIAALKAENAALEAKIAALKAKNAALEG

4H4001-AA = target: T6, 4H4001-AA; test: two-hybrid library CCmax; conditions: mean of both orientations;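 note: natural log of median RNA to DNA barcode read ratio; higher means stronger binding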
T6 chain: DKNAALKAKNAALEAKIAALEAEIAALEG

4H918-AA = target: T7, 4H918-AA; test: two-hybrid library CCmax; conditions: mean of both orientations
T7 chain: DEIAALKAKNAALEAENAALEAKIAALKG

4H953-AA = target: T8, 4H953-AA; test: two-hybrid library CCmax; conditions: mean of both orientations
T8 chain: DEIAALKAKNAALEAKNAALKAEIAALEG

4H797-AA = target: T9, 4H797-AA; test: two-hybrid library CCmax; conditions: mean of both orientations
T9 chain: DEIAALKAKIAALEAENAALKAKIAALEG

4H3855-AA = target: T10, 4H3855-AA; test: two-hybrid library CCmax
T10 chain: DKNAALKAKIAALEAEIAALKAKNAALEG

4H3041-bA = target: T11, 4H3041-bA; test: two-hybrid library CCNG1
T11 chain: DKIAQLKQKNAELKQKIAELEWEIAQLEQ

4H949-bA = target: T12, 4H949-bA; test: two-hybrid library CCNG1
T12 chain: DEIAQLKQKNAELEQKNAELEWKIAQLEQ

4H56-bA = target: T13, 4H56-bA; test: two-hybrid library CCNG1
T13 chain: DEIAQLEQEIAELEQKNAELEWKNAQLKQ

4H796-bA = target: T14, 4H796-bA; test: two-hybrid library CCNG1
T14 chain: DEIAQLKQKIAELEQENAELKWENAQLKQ

4H2760-bA = target: T15, 4H2760-bA; test: two-hybrid library CCNG1
T15 chain: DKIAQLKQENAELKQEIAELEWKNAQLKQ

4H932-bA = target: T16, 4H932-bA; test: two-hybrid library CCNG1
T16 chain: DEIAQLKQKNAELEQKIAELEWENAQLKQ

4H346-bH = target: T17, 4H346-bH; test: two-hybrid library CCNG1
T17 chain: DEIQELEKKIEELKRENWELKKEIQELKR

4H349-bA = target: T18, 4H349-bA; test: two-hybrid library CCNG1
T18 chain: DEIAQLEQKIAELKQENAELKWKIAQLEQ

4H3381-bA = target: T19, 4H3381-bA; test: two-hybrid library CCNG1
T19 chain: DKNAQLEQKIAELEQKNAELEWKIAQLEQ

4H2931-bA = target: T20, 4H2931-bA; test: two-hybrid library CCNG1
T20 chain: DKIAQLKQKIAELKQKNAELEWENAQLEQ

4H2585-bA = target: T21, 4H2585-bA; test: two-hybrid library CCNG1
T21 chain: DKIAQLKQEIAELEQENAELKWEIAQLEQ

4H2859-bA = target: T22, 4H2859-bA; test: two-hybrid library CCNG1
T22 chain: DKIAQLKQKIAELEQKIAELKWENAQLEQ

4H3297-bA = target: T23, 4H3297-bA; test: two-hybrid library CCNG1
T23 chain: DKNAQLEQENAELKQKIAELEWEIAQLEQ

4H3364-bA = target: T24, 4H3364-bA; test: two-hybrid library CCNG1
T24 chain: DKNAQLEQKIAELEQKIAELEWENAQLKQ

4H264-bA = target: T25, 4H264-bA; test: two-hybrid library CCNG1
T25 chain: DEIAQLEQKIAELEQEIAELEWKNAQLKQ

4H730-bA = target: T26, 4H730-bA; test: two-hybrid library CCNG1
T26 chain: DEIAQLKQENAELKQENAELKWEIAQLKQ

O3-bS = target: T27, O3-bS; test: two-hybrid library CCNG1
T27 chain: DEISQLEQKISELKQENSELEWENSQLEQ

O8-bS = target: T28, O8-bS; test: two-hybrid library CCNG1
T28 chain: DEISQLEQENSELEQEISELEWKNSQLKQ

O4-bS = target: T29, O4-bS; test: two-hybrid library CCNG1
T29 chain: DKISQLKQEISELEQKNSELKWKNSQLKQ

O6-bS = target: T30, O6-bS; test: two-hybrid library CCNG1
T30 chain: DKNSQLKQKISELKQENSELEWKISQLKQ

O7-bS = target: T31, O7-bS; test: two-hybrid library CCNG1
T31 chain: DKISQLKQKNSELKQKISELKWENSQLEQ

O9-bS = target: T32, O9-bS; test: two-hybrid library CCNG1
T32 chain: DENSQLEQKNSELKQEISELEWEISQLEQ

O5-bS = target: T33, O5-bS; test: two-hybrid library CCNG1
T33 chain: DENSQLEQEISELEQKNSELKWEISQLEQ

P6A-bA = target: T34, P6A-bA; test: two-hybrid library CCNG1
T34 chain: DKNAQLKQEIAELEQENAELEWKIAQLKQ

interaction score (4H717-AA): -1.18
interaction score (4H568-AA): -1.35
interaction score (4H967-AA): -1.53
interaction score (4H883-AA): -1.77
interaction score (4H687-AA): -1.5
interaction score (4H4001-AA): -0.86
interaction score (4H918-AA): -2.01
interaction score (4H953-AA): -1.89
interaction score (4H797-AA): -1.29
interaction score (4H3855-AA): 1.05
B1: 4H3855-AA (peptide)
chain: DKNAALKAKIAALEAEIAALKAKNAALEG

interaction score (4H3041-bA): 0.083
interaction score (4H949-bA): -1.08
interaction score (4H56-bA): -0.397
interaction score (4H796-bA): -1.49
interaction score (4H2760-bA): 0.582
interaction score (4H932-bA): -0.825
interaction score (4H346-bH): 1.98
interaction score (4H349-bA): 1.13
interaction score (4H3381-bA): -0.791
interaction score (4H2931-bA): -0.357
interaction score (4H2585-bA): 0.266
interaction score (4H2859-bA): -0.28
interaction score (4H3297-bA): -1.21
interaction score (4H3364-bA): -0.878
interaction score (4H264-bA): -1.54
interaction score (4H730-bA): -1.31
B2: 4H2585-bA (peptide)
chain: DKIAQLKQEIAELEQENAELKWEIAQLEQ

interaction score (O3-bS): -1.46
interaction score (O8-bS): -0.691
interaction score (O4-bS): 2.28
interaction score (O6-bS): -0.838
interaction score (O7-bS): -0.235
interaction score (O9-bS): -1.14
interaction score (O5-bS): 0.221
interaction score (P6A-bA): -1.14
B3: O3-bS (peptide)
chain: DEISQLEQKISELKQENSELEWENSQLEQ
